Measurements from ChEMBL document CHEMBL2073821, “Immunohistochemical and functional characterization of pH-dependent intestinal absorption of weak organic acids by the monocarboxylic acid transporter MCT1” (J Pharm Pharmacol, 1999).

What was measured:
[1] = substrate: C[C@H](O)C(=O)O; assay: (§1) TP_TRANSPORTER: uptake in MCT1-expressing MDA-MB231 cells; assay type: functional, cell-based; conditions: MDA-MB-231
[2] = substrate: O=C(O)c1ccccc1; assay: as §1; assay type: functional, cell-based; conditions: MDA-MB-231

B1: Monocarboxylate transporter 1 (Rattus norvegicus), P53987 (protein)
chain: MPPAIGGPVGYTPPDGGWGWAVVVGAFISIGFSYAFPKSITVFFKEIEIIFSATTSEVSWISSIMLAVMYAGGPISSILVNKYGSRPVMIAGGCLSGCGLIAASFCNTVQELYFCIGVIGGLGLAFNLNPALTMIGKYFYKKRPLANGLAMAGSPVFLSTLAPLNQAFFGIFGWRGSFLILGGLLLNCCVAGSLMRPIGPQQGKVEKLKSKESLQEAGKSDANTDLIGGSPKGEKLSVFQTVNKFLDLSLFTHRGFLLYLSGNVVMFFGLFTPLVFLSNYGKSKHFSSEKSAFLLSILAFVDMVARPSMGLAANTRWIRPRVQYFFAASVVANGVCHLLAPLSTTYVGFCIYAGVFGFAFGWLSSVLFETLMDLVGPQRFSSAVGLVTIVECCPVLLGPPLLGRLNDMYGDYKYTYWACGVILIIAGLYLFIGMGINYRLVAKEQKAEEKKRDGKEDETSTDVDEKPKKTMKETQSPAPLQNSSGDPAEEESPV
- Km [1]: 2280 µM
- Km [2]: 3050 µM
